Test results from US9127040B2, “Regulation of sodium channels by PLUNC proteins” (The University of North Carolina at Chapel Hill, priority 2011, dated 2015).

Legend:
[1] = target: T1, αβγENaC (Rattus norvegicus, UniProt P37089+P37090+P37091); test: Amiloride-sensitive whole cell current, two electrode voltage clamp, Xenopus laevis oocytes expressing αβγENaC; assay type: cell-based; details: PLUNC family member co-expressed with α,β,γ ENaC
T1 construct: expressed in transfected cells; host or cells: Xenopus laevis oocytes (cRNA injection)
T1 sequence (P37089 1-698): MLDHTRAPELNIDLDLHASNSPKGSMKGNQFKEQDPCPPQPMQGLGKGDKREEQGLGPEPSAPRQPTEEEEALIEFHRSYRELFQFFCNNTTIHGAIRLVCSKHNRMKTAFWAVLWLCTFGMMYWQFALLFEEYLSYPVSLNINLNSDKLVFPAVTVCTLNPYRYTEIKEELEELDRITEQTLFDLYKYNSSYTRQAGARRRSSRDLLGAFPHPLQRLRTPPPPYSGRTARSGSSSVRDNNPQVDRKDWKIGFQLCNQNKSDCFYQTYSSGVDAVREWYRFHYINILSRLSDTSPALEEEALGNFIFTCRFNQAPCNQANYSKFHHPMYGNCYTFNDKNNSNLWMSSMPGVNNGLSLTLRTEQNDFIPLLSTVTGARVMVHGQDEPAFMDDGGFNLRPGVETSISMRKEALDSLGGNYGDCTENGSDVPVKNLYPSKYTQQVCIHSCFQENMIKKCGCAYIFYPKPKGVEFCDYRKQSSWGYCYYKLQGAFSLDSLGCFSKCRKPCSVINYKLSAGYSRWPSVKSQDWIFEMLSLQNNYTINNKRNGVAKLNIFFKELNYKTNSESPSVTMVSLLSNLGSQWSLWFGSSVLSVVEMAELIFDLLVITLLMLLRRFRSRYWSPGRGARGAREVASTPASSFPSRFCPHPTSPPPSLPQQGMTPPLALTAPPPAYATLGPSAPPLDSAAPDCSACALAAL
T1 sequence (P37090 1-638): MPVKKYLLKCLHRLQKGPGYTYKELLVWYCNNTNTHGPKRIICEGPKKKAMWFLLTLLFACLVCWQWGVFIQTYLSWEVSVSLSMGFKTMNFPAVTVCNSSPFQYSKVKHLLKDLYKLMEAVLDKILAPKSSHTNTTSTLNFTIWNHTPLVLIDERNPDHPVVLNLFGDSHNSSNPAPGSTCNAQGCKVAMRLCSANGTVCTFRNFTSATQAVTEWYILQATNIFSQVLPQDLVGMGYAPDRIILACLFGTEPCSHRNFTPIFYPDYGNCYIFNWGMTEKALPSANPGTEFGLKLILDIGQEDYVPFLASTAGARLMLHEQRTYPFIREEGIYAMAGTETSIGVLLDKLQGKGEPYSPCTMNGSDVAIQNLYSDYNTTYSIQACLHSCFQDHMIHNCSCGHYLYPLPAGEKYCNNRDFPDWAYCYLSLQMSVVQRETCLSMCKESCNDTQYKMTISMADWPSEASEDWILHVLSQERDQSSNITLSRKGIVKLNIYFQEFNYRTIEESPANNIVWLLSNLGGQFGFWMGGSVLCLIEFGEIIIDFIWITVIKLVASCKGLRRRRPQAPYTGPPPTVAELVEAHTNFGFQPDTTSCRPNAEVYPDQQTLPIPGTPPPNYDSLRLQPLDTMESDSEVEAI
T1 sequence (P37091 1-650): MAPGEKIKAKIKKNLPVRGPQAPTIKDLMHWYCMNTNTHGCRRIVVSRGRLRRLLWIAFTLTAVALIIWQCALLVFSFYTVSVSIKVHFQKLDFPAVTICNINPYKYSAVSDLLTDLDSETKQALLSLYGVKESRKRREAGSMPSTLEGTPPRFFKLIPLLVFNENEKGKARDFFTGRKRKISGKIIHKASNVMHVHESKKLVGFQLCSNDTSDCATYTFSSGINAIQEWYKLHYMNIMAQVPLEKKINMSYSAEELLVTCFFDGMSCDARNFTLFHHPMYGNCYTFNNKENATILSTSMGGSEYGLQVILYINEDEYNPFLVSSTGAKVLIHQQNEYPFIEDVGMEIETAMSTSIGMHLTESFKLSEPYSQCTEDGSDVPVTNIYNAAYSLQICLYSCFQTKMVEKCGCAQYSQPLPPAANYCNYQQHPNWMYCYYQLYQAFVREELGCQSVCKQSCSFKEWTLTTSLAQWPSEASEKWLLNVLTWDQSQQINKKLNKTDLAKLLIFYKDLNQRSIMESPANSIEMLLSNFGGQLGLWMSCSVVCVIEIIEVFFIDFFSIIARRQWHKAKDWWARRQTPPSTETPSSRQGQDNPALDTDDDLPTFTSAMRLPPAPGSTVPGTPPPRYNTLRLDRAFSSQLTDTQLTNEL
Procedure: Xenopus laevis oocytes were harvested and injected as described (Donaldson, et al., J. Biol. Chem. 277:8338 (2002)). Defolliculated healthy stage V-VI oocytes were injected with 0.3 ng of CRNA of each ENaC subunit. Injected oocytes were kept in modified Barth's saline (in mM: 88 NaCl, 1 KCl, 2.4 NaHCO3, 0.3 Ca(NO3)2, 0.41 CaCl2, 0.82 MgSO4, and 15 HEPES, adjusted to pH 7.35 with Tris). Oocytes were studied 24 hr after injection using the two electrode voltage clamp technique as previously described (Donaldson, et al., J. Biol. Chem. 277:8338 (2002)). Oocytes were clamped at a holding potential of −60 mV. The change in amiloride-sensitive whole cell current as an indicator of ENaC activity was determined by subtracting the corresponding current value measured in the presence of 10 μM amiloride from that measured before the application of amiloride. Where appropriate, oocytes were incubated with G22-A39 or ABC for 1 h prior to recording. In some experiments β-ENaC^S518C was used which forms ENaCs that are locked into an open probability near 1.0 by exposure to the sulthydral reactive reagent [2-(Trimethyl-ammonium)ethyl]methanethiosulphonate bromide (MTSET). MTSET was added at a concentration of 1 mM to the oocyte bath as previously described (Snyder, J. Clin. Invest. 105: 45 (2000)).

[2] = target: T2, ENaC (Homo sapiens, UniProt P37088+P51168+P51170); test: Transepithelial voltage (PD), thin film conditions, human bronchial epithelial cultures; assay type: cell-based; details: 50 ng/ml, PD remeasured 45 min later, prewashed cultures
T2 construct: measured the transepithelial voltage under thin film conditions in human bronchial epithelial cultures; endogenous in cells; host or cells: primary human bronchial epithelial cultures (normal or CF donors)
T2 sequence (P37088 1-669): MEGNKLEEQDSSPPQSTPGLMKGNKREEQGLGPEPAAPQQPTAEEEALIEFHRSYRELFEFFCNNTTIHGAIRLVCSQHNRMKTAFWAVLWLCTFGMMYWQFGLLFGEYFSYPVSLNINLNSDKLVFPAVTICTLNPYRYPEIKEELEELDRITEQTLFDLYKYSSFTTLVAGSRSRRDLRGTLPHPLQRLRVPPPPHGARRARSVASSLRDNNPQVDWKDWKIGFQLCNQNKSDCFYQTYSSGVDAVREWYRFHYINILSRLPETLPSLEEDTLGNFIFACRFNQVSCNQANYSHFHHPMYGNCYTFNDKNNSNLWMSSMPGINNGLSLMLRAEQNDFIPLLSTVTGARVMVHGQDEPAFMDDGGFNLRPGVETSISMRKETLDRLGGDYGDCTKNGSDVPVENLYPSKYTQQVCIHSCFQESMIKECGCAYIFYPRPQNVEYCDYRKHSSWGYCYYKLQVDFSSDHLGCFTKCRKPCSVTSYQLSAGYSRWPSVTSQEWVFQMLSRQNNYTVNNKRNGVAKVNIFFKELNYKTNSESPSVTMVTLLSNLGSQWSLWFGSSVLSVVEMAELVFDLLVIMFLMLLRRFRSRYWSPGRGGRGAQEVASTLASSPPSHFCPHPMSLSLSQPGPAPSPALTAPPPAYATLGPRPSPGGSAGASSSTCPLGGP
T2 sequence (P51168 1-640): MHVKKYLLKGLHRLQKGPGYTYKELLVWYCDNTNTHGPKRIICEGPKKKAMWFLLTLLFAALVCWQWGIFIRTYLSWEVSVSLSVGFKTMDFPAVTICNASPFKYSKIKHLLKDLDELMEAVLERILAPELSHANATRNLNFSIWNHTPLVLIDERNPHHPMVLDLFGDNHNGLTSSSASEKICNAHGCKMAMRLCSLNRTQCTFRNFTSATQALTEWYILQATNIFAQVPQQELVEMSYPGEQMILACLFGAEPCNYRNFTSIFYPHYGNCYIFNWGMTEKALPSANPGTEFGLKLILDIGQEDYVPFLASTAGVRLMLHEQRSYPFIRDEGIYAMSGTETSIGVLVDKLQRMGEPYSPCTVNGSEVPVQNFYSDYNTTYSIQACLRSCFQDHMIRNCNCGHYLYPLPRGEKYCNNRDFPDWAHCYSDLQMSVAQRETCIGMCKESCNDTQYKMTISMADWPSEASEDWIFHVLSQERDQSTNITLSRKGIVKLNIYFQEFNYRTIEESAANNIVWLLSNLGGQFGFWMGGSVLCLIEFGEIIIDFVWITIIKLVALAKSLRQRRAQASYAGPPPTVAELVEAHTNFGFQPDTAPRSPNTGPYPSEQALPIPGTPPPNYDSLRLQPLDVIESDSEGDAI
T2 sequence (P51170 1-649): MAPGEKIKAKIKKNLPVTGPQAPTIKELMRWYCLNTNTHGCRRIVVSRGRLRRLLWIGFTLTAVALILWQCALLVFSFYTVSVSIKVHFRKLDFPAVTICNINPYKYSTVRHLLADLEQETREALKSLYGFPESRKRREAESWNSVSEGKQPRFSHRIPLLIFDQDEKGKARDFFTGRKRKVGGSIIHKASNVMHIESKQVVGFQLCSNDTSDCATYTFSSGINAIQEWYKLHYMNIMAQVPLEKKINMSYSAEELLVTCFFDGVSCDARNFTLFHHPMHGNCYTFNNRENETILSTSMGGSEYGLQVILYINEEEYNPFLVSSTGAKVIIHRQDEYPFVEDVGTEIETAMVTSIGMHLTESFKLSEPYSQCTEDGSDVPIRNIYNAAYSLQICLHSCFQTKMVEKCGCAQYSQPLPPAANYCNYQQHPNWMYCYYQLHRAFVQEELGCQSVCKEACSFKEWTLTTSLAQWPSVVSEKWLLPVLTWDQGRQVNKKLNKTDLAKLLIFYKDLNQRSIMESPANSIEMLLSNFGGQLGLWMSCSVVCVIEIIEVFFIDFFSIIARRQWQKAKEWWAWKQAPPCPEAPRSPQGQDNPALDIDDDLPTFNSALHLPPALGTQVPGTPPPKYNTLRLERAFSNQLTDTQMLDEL
Description: Tissue procurement and cell culture: Cells were harvested by enzymatic digestion from human bronchial tissue as previously described under a protocol approved by the UNC School of Medicine IRB (Tarran et al., J. Gen. Physiol. 127:591 (2006)). Human excess donor lungs and excised recipient lungs were obtained at the time of lung transplantation from portions of main stem or […] bronchi and cells were harvested by enzymatic digestion. All preparations were maintained at an air-liquid interface in a modified bronchial epithelial medium and used 2-5 weeks after seeding on 12 mm T-Clear inserts (Corning Costar) coated with human placental type VI collagen (Sigma). Phosphate buffered saline (PBS) was used for washing human bronchial epithelial culture mucosal surfaces. HBECs were maintained at an air-liquid interface in a modified bronchial epithelial growth medium (BEGM) with 5% CO2 at 37° C. and used 2-5 weeks after seeding on 12-mm T-clear inserts (Corning-Costar, Corning, N.Y., USA) (Randell, Methods Mol. Biol. 742:285 (2011)).
A single-barreled potential difference-sensing electrode was placed in the airway surface liquid by micromanipulator and used in conjunction with a macroelectrode in the serosal solution to measure transepithelial voltage using a voltmeter (World Precision Instruments). […] Transepithelial resistance was routinely measured using the EVOM system (WPI) as previously described (Tarran et al., J. Gen. Physiol. 127:591 (2006)).

[3] = tested on: CF HBECs; details: 30 μM, ASL height over 24 h
Procedure: To label airway surface liquid, Ringer containing Texas Red-dextran (2 mg/ml; Invitrogen) was added to human bronchial epithelial culture mucosal surfaces. Perfluorocarbon was added mucosally to prevent evaporation of the airway surface liquid and the culture placed in a chamber containing 100 μl Ringer on the stage of a Leica SP5 confocal microscope with a 63× glycerol immersion objective. 5 points per culture were scanned and an average airway surface liquid height determined. For confocal microscopy human bronchial epithelial cultures were bathed serosally in a modified Ringer solution containing (mM): 116 NaCl, 10 NaHCO3, 5.1 KCl, 1.2 CaCl2, 1.2 MgCl2, 20 TES, 10 glucose, pH 7.4). At all other times, human bronchial epithelial cultures were maintained in a modified BEGM growth medium which contained 24 mM NaHCO3 gassed with 5% CO2.
To label the ASL, PBS containing 10 kDa Rhodamine dextran (0.2-2 mg/mL; Invitrogen, Carlsbad, Calif., USA) was added to HBEC mucosal surfaces as previously described (Tarran et al., Mol. Cell 8:149 (2001)). When added, peptides with or without 100 nM neutrophil elastase, 1 U/mL aprotinin, activated neutrophil supernatant (ANS) (Haynes et al., Am. J. Physiol. Heart Circ. Physiol. 294:H379 (2008)) or 10 μM sivelestat (Sigma-Aldrich, St Louis, Mo., USA) were added to the mucosal surface along with the Rhodamine dextran. Bumetanide (100 μM) was added to the serosal solution.

B1: SPLUNC2: human SPLUNC2 (SEQ ID NO:2), short PLUNC family protein co-expressed in oocytes (protein, listed as Homo sapiens)
chain: MLQLWKLVLLCGVLTGTSESLLDNLGNDLSNVVDKLEPVLHEGLETVDNTLKGILEKLKVDLGVLQKSSAWQLAKQKAQEAEKLLNNVISKLLPTNTDIFGLKISNSLILDVKAEPIDDGKGLNLSFPVTANVTVAGPIIGQIINLKASLDLLTAVTIETDPQTHQPVAVLGECASDPTSISLSLLDKHSQIINKFVNSVINTLKSTVSSLLQKEICPLIRIFIHSLDVNVIQQVVDNPQHKTQLQTLI
- amiloride-sensitive ENaC current relative to control, co-expression [1]: borderline significance

B2: recombinant SPLUNC1 that had been reduced with DTT: recombinant SPLUNC1 pretreated (reduced) with DTT (protein, UniProt Q9NP55 20-256, looked up)
BPI fold-containing family A …: QFGGLPVPLDQTLPLNVNPALPLSPTGLAGSLTNALSNGLLSGGLLGILENLPLLDILKPGGGTSGGLLGGLLGKVTSVIPGLNNIIDIKVTDPQLLELGLVQSPDGHRLYVTIPLGIKLQVNTPLVGASLLRLAVKLDITAEILAVRDKQERIHLVLGDCTHSPGSLQISLLDGLGPLPIQGLLDSLTGILNKVLPELVQGNVCPLVNEVLRGLDITLVHDIVNMLIHGLQFVIKV
modifications: DTT-reduced
- inhibition of transepithelial PD after DTT reduction [2]: abolished SPLUNC1 activity

B3: mutant SPLUNC1: SPLUNC1 with hinge domain mutated to alanines: K94A, N103A, N104A, K138A, Q140A, N142A, D193A (protein, UniProt Q9NP55 20-256, looked up, variant K94A N103A N104A K138A Q140A N142A D193A)
BPI fold-containing family A …: QFGGLPVPLDQTLPLNVNPALPLSPTGLAGSLTNALSNGLLSGGLLGILENLPLLDILKPGGGTSGGLLGGLLGAVTSVIPGLAAIIDIKVTDPQLLELGLVQSPDGHRLYVTIPLGIALAVATPLVGASLLRLAVKLDITAEILAVRDKQERIHLVLGDCTHSPGSLQISLLAGLGPLPIQGLLDSLTGILNKVLPELVQGNVCPLVNEVLRGLDITLVHDIVNMLIHGLQFVIKV
- ASL absorption in CF cultures [3]: significantly inhibited ASL absorption
